The values below come from patent US20220324988A1.

The experiment deals with human CD40 expressed on cells (human) (UniProt P25942). Kind of experiment: cell-based or functional assay.
Sequence of human CD40 expressed on cells (human) (P25942 21-277): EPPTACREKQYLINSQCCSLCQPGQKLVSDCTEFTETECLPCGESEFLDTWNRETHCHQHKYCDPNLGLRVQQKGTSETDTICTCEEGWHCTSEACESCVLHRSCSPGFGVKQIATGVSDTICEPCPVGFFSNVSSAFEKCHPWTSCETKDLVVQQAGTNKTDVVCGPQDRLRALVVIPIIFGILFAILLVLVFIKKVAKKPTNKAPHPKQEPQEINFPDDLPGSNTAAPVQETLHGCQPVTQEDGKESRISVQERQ

“CD40L (positive control, produced in 293F cells) (ligand)” gave a GFP positive rate for Jurkat/NF-kB-GFP+hCD40 single clones after CD40L stimulation (100 nM) of 94.7%.
